According to patent US8530168B2, “Fusion protein comprising a Caspase domain and a nuclear hormone receptor binding domain and methods and uses thereof” (Helmholtz Zentrum Munich Deutsches Forschungszentrum fuer …, priority 2007, dated 2013):

Tests used:
Type in all cases: cell-based, mouse
MEF5/N9 cells [1] = test: Transient cotransfection of ER(T2) fusion expression vectors with β-galactosidase reporter; β-galactosidase activity in lysates; conditions: no 4-OH-tamoxifen; transient transfection 50 or 100 ng vector; relative to Cre-ER(T2) without 4-OH-tamoxifen
MEF5/N9 cells [2] = test: TUNEL in situ cell death detection assay of MEF5/N9 clones; conditions: 10^−8 M 4-OH-tamoxifen
Excerpt: TUNEL, or terminal deoxynucleotidyl transferase-mediated dUTP nick end-labeling, is acknowledged as a method of choice in the rapid detection of DNA fragmentation that results from apoptotic signaling cascades (Gavrieli et al., J. Cell Biol., 119(3), 493-501 (1992)). Cleavage of genomic DNA during apoptosis may yield double-stranded, low molecular weight DNA fragments as well as single strand breaks (“nicks”) in high molecular weight DNA. Those DNA strand breaks can be identified by terminal deoxynucleotidyl transferase (TdT), which catalyzes polymerization of labeled nucleotides to free 3′-OH DNA ends in a template-independent manner. To detect 4-OH-tamoxifen induced cell death in MEF5/N9 cells, we applied the In Situ Cell Death Detection Kit, POD by Roche according to the manufacturer's instructions. Incorporated fluorescein is detected by anti-fluorescein antibody, conjugated with horse-radish peroxidase (POD). After substrate reaction, stained cells can be analyzed under light microscopy.
Two days prior to the TUNEL staining, round glass cover slips ([…]) were sterilized with 70% EtOH, dried under laminar flow and coated with Poly-L-lysine at a concentration of 50 μg/ml over night at 37° C., which allows a better attachment of cells on the cover slips. The following day, the cover slips were rinsed 3 times with PBS and dried for 1 hour under laminar flow. 2.5·10^5 cells were seeded onto cover slips in a 6-well plate. On the test day, medium was replaced either by fresh medium or medium supplemented with 10^−8 M 4-OH-tamoxifen. […] After fixation, cells were rinsed three times in PBS, covered with 100% methanol and incubated for 10 min or over night in a freezer and rinsed in PBS. Endogenous peroxidase activity was blocked by immersing cover slips for 10 min in 3% H2O2 in methanol prior to cell permeabilization. Cells were subsequently rinsed with PBS and incubated in permeabilization solution (0.1% Triton X-100 in freshly prepared 0.1% sodium citrate) for 2 min on ice. To generate a positive control, DNA strand breaks were induced by incubating permeabilized cells with 2 U/ml DNase I in 50 mM Tris-HCl, pH 7.5, 10 mM MgCl2, 1 mg/ml BSA for 10 min at room temperature, prior to labeling procedure. Cover slips were rinsed twice with PBS before incubating each sample with 25 μl TUNEL reaction mixture for 60 min at 37° C. in a humidified atmosphere in the dark. To avoid evaporative loss, cover slips were covered with parafilm. For a negative control 25 μl of Label solution without enzyme solution were added. Following labeling, cover slips were rinsed 3 times with PBS for 10 min each. To convert the fluorescence signal to a chromogenic signal, 25 μl of the POD solution were added on each sample which was covered with parafilm and incubated in a humidified chamber for 30 min at 37° C. Subsequently, cover slips were rinsed 3 times with PBS and incubated in freshly prepared 0.05% DAB in 0.1 M Tris-HCl (pH 7.4) supplemented with 0.02% H2O2 for 10-20 min at room temperature. The conversion procedure was controlled under a light microscope. The reaction was stopped with PBS until brown precipitates were well visible inside the cells. To remove DAB, cover slips were rinsed several times in PBS. Optionally, nuclear staining was performed by incubating cover slips for 15 min in 2.5 μg/ml DAPI diluted in PBS. Cover slips were mounted with a water-soluble, non-fluorescing mounting medium (Aqua-Poly/Mount; Polysciences Inc., Eppelheim, Germany) under SuperFrost slides (VWR International). Prior to the analysis of the samples under a light microscope, mounting medium was dried for 24 hours at room temperature.
To provide direct evidence for 4-OH-tamoxifen-induced apoptosis in MEF5/N9 clones expressing Caspase-8 or -9 fusion proteins, an in situ application of the TUNEL assay was performed. This method detects DNA fragmentation, one of the late events that result from apoptotic signaling cascades. […]

MEF5/N9 cells [3] = test: Visible phenotypic changes / viability of stably transfected MEF5/N9 clones on 4-OH-tamoxifen treatment; conditions: 10^−8 M 4-OH-tamoxifen, 24 h
Summary of the method: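 Hygromycin-selected MEF5/N9 clones stably expressing ER(T2) fusion proteins were plated at 1·10^5 cells/well and next day given 10^−8 M 4-hydroxy-tamoxifen. Cell death was judged from phase-contrast micrographs at 10- or 20-fold magnification taken 24 h after induction.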

MEF5/N9 cells [4] = test: MTT cytotoxicity assay of stably transfected MEF5/N9 clones; conditions: 10^−8 M 4-OH-tamoxifen, 48 h
Summary of the method: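 Hygromycin-selected MEF5/N9 clones stably carrying ER(T2) fusion constructs, 4·10^3 cells/well, treated 48 h with or without 10^−8 M 4-OH-tamoxifen, in triplicate. Survival measured by MTT (0.5 mg/ml, 4 h, 37° C), formazan dissolved in HCl/isopropanol, absorbance at 570 nm.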

B1: Casp9full-ER(T2): full length murine Caspase-9 fused to ER(T2) ligand binding domain, SEQ ID NO: 29 (protein)
chain: MDEADRQLLRRCRVRLVSELQVAELWDALLSRELFTRDMIEDIQQAGSGSRRDQARQLVTDLETRGRQALPLFISCLEDTGQGTLASLLQSGRQAAKQDPEAVKPLDHLVPVVLGPMGLTAKEQRVVKLDPSQPAVGNLTPVVLGPEELWPARLKPEVLRPETPRPVDIGSGGAHDVCVPGKIRGHADMAYTLDSDPCGHCLIINNVNFCPSSGLGTRTGSNLDRDKLEHRFRWLRFMVEVKNDLTAKKMVTALMEMAHRNHRALDCFVVVILSHGCQASHLQFPGAVYGTDGCSVSIEKIVNIFNGSGCPSLGGKPKLFFIQACGGEQKDHGFEVACTSSQGRTLDSDSEPDAVPYQEGPRPLDQLDAVSSLPTPSDILVSYSTFPGFVSWRDKKSGSWYIETLDGILEQWARSEDLQSLLLRVANAVSAKGTYKQIPGCFNFLRKKLFFKTSVEPSAGDMRAANLWPSPLMIKRSKKNSLALSLTADQMVSALLDAEPPILYSEYDPTRPFSEASMMGLLTNLADRELVHMINWAKRVPGFVDLTLHDQVHLLECAWLEILMIGLVWRSMEHPVKLLFAPNLLLDRNQGKCVEGMVEIFDMLLATSSRFRMMNLQGEEFVCLKSIILLNSGVYTFLSSTLKSLEEKDHIHRVLDKITDTLIHLMAKAGLTLQQQHQRLAQLLLILSHIRHMSNKGMEHLYSMKCKNVVPLYDLLLEAADAHRLHAPTSRGGASVEETDQSHLATAGSTSSHSLQKYYITGEAEGFPATA
modifications: fusion protein Casp9full-ER(T2)
MEF5/N9 cells [1]
  basal toxicity: relative β-galactosidase activity compared to the negative control in absence of 4-OH-tamoxifen: 62%
MEF5/N9 cells [2]; 3 or 7 hours
  TUNEL result / apoptotic morphology (in words): typical apoptotic morphology
MEF5/N9 cells [2]; fixation at 2, 3, 5 and 7 hours
  incubation time with 4-OH-tamoxifen at which TUNEL positive cells were detected: 3 h
MEF5/N9 cells [3]
  4-OH-tamoxifen-dependent cell death, phenotype of stable clones: died in the presence of 4-OH-tamoxifen within 24 h
MEF5/N9 cells [3]; listed as Casp9fullER
  4-OH-tamoxifen-dependent cell death, phenotype of stable clones: substantial cell death
MEF5/N9 cells [4]
  cell viability in the presence of 4-OH-tamoxifen (MTT): 6%
